This note sets out measurements from patent US20250076311A1 (Chugai, published 2025).

In assay [1] the target is T1, cynomolgus monkey FcγRIIIaS extracellular domain with C-terminal His-tag (cynomolgus monkey, UniProt Q8SPW2 21-206 at identity 1.00)).
T1 construct: also called cyno FcgRIIIaS; cynoFcγRIIIaS
T1 chain: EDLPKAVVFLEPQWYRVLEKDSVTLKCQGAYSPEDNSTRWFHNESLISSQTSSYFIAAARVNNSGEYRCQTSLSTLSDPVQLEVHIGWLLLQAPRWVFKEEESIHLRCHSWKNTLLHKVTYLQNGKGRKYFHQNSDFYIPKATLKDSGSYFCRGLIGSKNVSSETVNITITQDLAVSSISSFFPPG
The assay is described as follows: SPR (Biacore), KD of SG1 / KD of variant. On the technique in general: In SPR one partner is held on a chip, and binding of the other changes the refractive index at the surface.

For assay [2], the target named is T2, human FcγRIIaR extracellular domain with C-terminal His-tag (human, UniProt P12318 34-217).
T2 construct: also called human FcgRIIaR; FcγRIIa (type R)
T2 chain: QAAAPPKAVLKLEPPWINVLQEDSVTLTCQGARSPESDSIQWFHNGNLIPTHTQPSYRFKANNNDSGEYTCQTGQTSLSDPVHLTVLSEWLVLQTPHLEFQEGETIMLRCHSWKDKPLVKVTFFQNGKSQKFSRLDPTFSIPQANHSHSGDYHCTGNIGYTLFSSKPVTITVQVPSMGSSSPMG
In words: SPR (Biacore), antibody captured, FcgR analyte.

Assay [3] has as its target T3, human FcγRIIaH extracellular domain with C-terminal His-tag (human, UniProt P12318 34-217).
T3 construct: also called human FcgRIIaH; FcγRIIa (type H)
T3 sequence: T2 chain with R134H
In words: SPR (Biacore), KD of SG1 / KD of variant.

Assay [4] concerns the target T4, cynomolgus monkey FcγRIIa3 extracellular domain with C-terminal His-tag (cynomolgus monkey).
T4 construct: also called cyno FcgRIIa3; cynoFcγRIIa3
T4 chain: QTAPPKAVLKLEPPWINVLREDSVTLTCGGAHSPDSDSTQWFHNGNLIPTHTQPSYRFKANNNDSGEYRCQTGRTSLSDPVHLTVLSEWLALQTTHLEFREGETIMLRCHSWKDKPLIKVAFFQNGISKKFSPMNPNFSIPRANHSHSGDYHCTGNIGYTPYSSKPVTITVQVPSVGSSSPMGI
In words: SPR (Biacore), KD of SG1 / KD of variant.

Assay [5] addresses T5, human FcγRIIIaV extracellular domain with C-terminal His-tag (human, UniProt P08637 17-208).
T5 construct: also called human FcgRIIIaV
In words: SPR (Biacore), KD of SG1 / KD of variant.

Assay [6] has as its target T6, cynomolgus monkey FcγRIIa2 extracellular domain with C-terminal His-tag (cynomolgus monkey).
T6 construct: also called cyno FcgRIIa2; cynoFcγRIIa2
T6 chain: T4 chain with I127K, K130N, P133H, R142Q
The assay is described as follows: SPR (Biacore), KD of SG1 / KD of variant.

Assay [7] has as its target T5, human FcγRIIIaV extracellular domain …. The assay is described as follows: SPR (Biacore), antibody captured, FcgR analyte.
Assay [8] has as its target T7, human FcγRIIaH extracellular domain, His-tagged (human, UniProt P12318 34-217).
T7 construct: also called human FcγRIIa (type H); FcgRIIaH
T7 sequence: T2 chain with R134H
The assay is described as follows: SPR (BIACORE), antibody captured, FcγR analyte, 25 C; KD of SG1 divided by KD of variant. The method, then: (§1) The kinetic analysis of interactions between these antibodies and FcγR was carried out using BIACORE® T200 or BIACORE® 4000 (GE Healthcare). HBS-EP+ (GE Healthcare) was used as the running buffer, and the measurement temperature was set to 25° C. […] After the measurement, the antibody captured on the chip was washed off by allowing reaction with 10 mM glycine-HCl, pH1.5 and 25 mM NaOH so that the chip was regenerated and used repeatedly. The sensorgrams obtained as measurement results were analyzed by the 1:1 Langmuir binding model using the BIACORE® Evaluation Software to calculate the binding rate constant ka (L/mol/s) and dissociation rate constant kd (1/s), and the dissociation constant KD (mol/L) was calculated from these values. […] Regarding such interactions, KD values were calculated using the following 1:1 binding model described in BIACORE® T100 Software Handbook BR1006-48 Edition AE.

For assay [9], the target named is T8, cynomolgus monkey FcγRIIa1 extracellular domain with C-terminal His-tag (cynomolgus monkey).
T8 construct: also called cyno FcγRIIa1; FcgRIIa1
T8 chain: T4 chain with T95P, A121T, S128A, P133H, N135D
The assay is described as follows: SPR; KD of SG1 / KD of variant.

Assay [10] addresses T9, cynomolgus monkey FcγRIIIaS extracellular domain with C-terminal His-tag (cynomolgus monkey, UniProt Q8SPW2 21-206 at identity 1.00)).
T9 construct: also called cyno FcγRIIIaS; FcgRIIIaS
T9 chain: T1 chain
The assay is described as follows: SPR; KD of SG1 / KD of variant.

In assay [11] the target is T10, human FcγRIIIaV extracellular domain, His-tagged (human, UniProt P08637 17-208).
T10 construct: also called human FcγRIIIa (V158); FcgRIIIaV
T10 sequence (P08637 17-208 F176V): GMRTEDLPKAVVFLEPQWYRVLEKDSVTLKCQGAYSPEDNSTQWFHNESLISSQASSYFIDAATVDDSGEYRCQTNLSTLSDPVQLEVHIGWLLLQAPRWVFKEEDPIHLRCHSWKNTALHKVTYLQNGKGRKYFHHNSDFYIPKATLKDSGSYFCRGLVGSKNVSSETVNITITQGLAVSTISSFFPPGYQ
In words: SPR (BIACORE), antibody captured, FcγR analyte, 25 C; KD of SG1 divided by KD of variant. The method, then:
as §1

Assay [12] concerns the target T2, human FcγRIIaR extracellular domain …. In words: SPR (Biacore), KD of SG1 / KD of variant.
Assay [13] has as its target T11, cynomolgus monkey FcγRIIIaS extracellular domain, His-tagged (cynomolgus monkey, UniProt Q8SPW2 21-206 at identity 1.00)).
T11 construct: also called cyno FcγRIIIaS; cynoFcgRIIIaS
T11 chain: T1 chain
In words: SPR (BIACORE), antibody captured, FcγR analyte, 25 C; KD of SG1 divided by KD of variant. The method, then: as §1

Assay [14] has as its target T12, cynomolgus monkey FcγRIIb extracellular domain, His-tagged (cynomolgus monkey).
T12 construct: also called cyno FcγRIIb; cynoFcgRIIb
T12 chain: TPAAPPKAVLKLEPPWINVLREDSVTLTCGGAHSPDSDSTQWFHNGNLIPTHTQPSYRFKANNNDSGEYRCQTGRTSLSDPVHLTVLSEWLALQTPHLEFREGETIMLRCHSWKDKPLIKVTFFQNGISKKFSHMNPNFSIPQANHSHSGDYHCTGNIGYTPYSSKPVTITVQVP
The description is as above. The protocol:
as §1

The target in assay [15] is T13, cynomolgus monkey FcγRIIa3 extracellular domain with C-terminal His-tag (cynomolgus monkey).
T13 construct: also called cyno FcγRIIa3; FcgRIIa3
T13 chain: T4 chain
The assay is described as follows: SPR; KD of SG1 / KD of variant.

In assay [16] the target is T14, human FcγRIIaR extracellular domain with C-terminal His-tag (human, UniProt P12318 34-217).
T14 construct: also called human FcγRIIa (type R); FcgRIIaR
T14 chain: T2 chain
In words: SPR; KD of SG1 / KD of variant.

Changes are numbered by the printed parent chain.

T5 sequence (P08637 17-208 F176V): as the sequence (P08637 17-208 F176V) above

B1: M103205H795-MY441/M103202L889-SK1 (antibody, human IgG1, kappa)
heavy: QVTLKESGPVLVKPTETLTLTCTVSGIDLSHDDISWVRQAPGKGLEWVGIISYAGSTYYASWAKGRLTISKDTSKNQVVLTMTNMDPVDTATYYCARGVPAYSHGGDLWGQGTLVTVSSASTKGPSVFPLAPSSKSTSGGTAALGCLVKDYFPEPVTVSWNSGALTSGVHTFPAVLQSSGLYSLSSVVTVPSSSLGTQTYICNVNHKPSNTKVDKKVEPKSCDKTHTCPPCPAAELLTGPSVFLFPPKPKDTLMISRTPEVTCVVVDVSDEDPEVKFNWYVDGVEVHNAKTKPREEQYNSTYRVVSVLTVLHQDWLNGKEYKCKVSNKALPKPIEKTISKAKGQPREPQVYTLPPSREEMTKNQVSLTCLVKGFYPSDIAVEWESNGQPENNYKTTPPVLDSDGSFFLYSKLTVDKSRWQQGNVFSCSVMHEALHNHYTQKSLSLSP
light: DIVMTQSPATLSLSPGERATLSCTSSQSVYHANWLSWFQQKPGQPPKLLIYWASTLAYGVPSRFSGSGSGTDFTLTISSLQPEDAATYYCAGGYGGGRYAFGQGTKVEIKRTVAAPSVFIFPPSDEQLKSGTASVVCLLNNFYPREAKVQWKVDNALQSGNSQESVTEQDSKDSTYSLSSTLTLSKADYEKHKVYACEVTHQGLSSPVTKSFNRGEC
notes: Substitutions in EU numbering on SG1
For orientation: Kd means the concentration at which binding is half-saturated. As to B1, in [1], the “KD fold (SG1 = 1)” value was 0.2 fold. The molecule also showed a Kd in assay [2] of 600 nM.

B2: M103205H795-MY460/M103202L889-SK1 (antibody)
chain 1: B1 heavy with A233E, A234P
chain 2: B1 light
In the case of B2, the “KD fold (SG1 = 1)” value in assay [1] came out at 0.2 fold.

B3: M103205H795-MY443/M103202L889-SK1 (antibody, human IgG1, kappa)
heavy: B1 heavy with A234E
light: B1 light
notes: as for B1
Regarding B3, the results for the “KD fold (SG1 = 1)” value in assay [3], in assay [4] and in [1] were 1.5 fold, 1.5 fold and 0.2 fold, respectively.

B4: M103205H795-MY466/M103202L889-SK1 (antibody)
heavy: B1 heavy with A233L, A234P
light: B1 light
notes: as for B1
On to B4, for which the “KD fold (SG1 = 1)” value in [5] amounted to 0.2 fold; in [6], 2.8 fold. The Kd in assay [2] stood at 260 nM; in assay [7] it was 4600 nM.

B5: M103205H795-MY457/M103202L889-SK1 (antibody, human IgG1, kappa, name in EU numbering)
heavy: B1 heavy with A234W
light: B1 light
As for B5, the “KD fold (SG1 = 1)” value in assay [8] came to 5.6 fold.

B6: M103205H795-MY273 (heavy chain) with M103202L889-SK1 (light chain) (antibody, human IgG1, kappa, name in EU numbering)
heavy: B1 heavy with A234P, T238L, P398K
light: B1 light
notes: Substitutions introduced into M103205H795-SG1; positions in EU numbering
Regarding B6, the “KD fold (SG1 = 1)” value in assay [9] was 0.9 fold; in assay [10] it was 0.21 fold.

B7: M103205H795-MY459/M103202L889-SK1 (antibody)
heavy: B1 heavy with A233D, A234P
light: B1 light
notes: as for B1
Consider B7, for which the “KD fold (SG1 = 1)” value in assay [3] amounted to 1.6 fold; in [1], 0.2 fold.

B8: M103205H795-MY449/M103202L889-SK1 (antibody, human IgG1, kappa, name in EU numbering)
heavy: B1 heavy with A234L
light: B1 light
Turning to B8, the “KD fold (SG1 = 1)” value in assay [11] came to 0.2 fold.

B9: M103205H795-MY444/M103202L889-SK1 (antibody, human IgG1, kappa)
heavy: B1 heavy with A234F
light: B1 light
notes: as for B1
Take B9: the “KD fold (SG1 = 1)” value turned out to be 7.5 fold in assay [12], 6.5 fold in assay [3], 0.2 fold in assay [5] and 8.9 fold in assay [4].

B10: M103205H795-MY452/M103202L889-SK1 (antibody, human IgG1, kappa, name in EU numbering)
heavy: B1 heavy with A234Q
light: B1 light
Take B10: the “KD fold (SG1 = 1)” value in assay [13] came to 0.2 fold; in [8], 2.9 fold.

B11: M103205H795-MY454/M103202L889-SK1 (antibody, human IgG1, kappa, name in EU numbering)
heavy: B1 heavy with A234S
light: B1 light
Take B11: the figures for the “KD fold (SG1 = 1)” value in assay [14], in assay [13] and in assay [11] were 1.8 fold, 0.2 fold and 0.2 fold, respectively.

B12: M103205H795-MY455/M103202L889-SK1 (antibody, human IgG1, kappa, name in EU numbering)
heavy: B1 heavy with A234T
light: B1 light
Consider B12, for which the “KD fold (SG1 = 1)” value in assay [13] is 0.2 fold; in assay [8] it was 2.7 fold.

B13: M103205H795-MY271 (heavy chain) with M103202L889-SK1 (light chain) (antibody, human IgG1, kappa, name in EU numbering)
heavy: B1 heavy with A234P, T238V, P398K
light: B1 light
notes: as for B6
For B13, the “KD fold (SG1 = 1)” value in assay [9] was determined as 4.2 fold; in assay [15], 5.5 fold; in [10], 0.41 fold; in assay [16], 4 fold.

B14: M103205H795-MY453/M103202L889-SK1 (antibody, human IgG1, kappa, name in EU numbering)
heavy: B1 heavy with A234R
light: B1 light
On to B14, for which the “KD fold (SG1 = 1)” value in [14] came out at 0.9 fold; in [13], 0.2 fold; in [11], 0.2 fold.
